Assay results reported in PMC7603008 (Materials, 2020).

What was measured:
[1] = tested on: cavities in beagle dog premolars; assay: Characterisation of CPNE7-induced hard tissue (SEM, Masson's trichrome, alternative filling materials); format: in vivo
Method: Beagle dogs of 1–2 years of age were used for three independent experiments. After disinfecting the cervical regions of the maxillary and mandibular premolars with 0.5% chlorhexidine, dish-shaped class V cavities were prepared using a #4 high-speed round bur (head diameter, 1.4 mm). For shallow cavities, the drilling stopped when half to two-thirds of the bur head penetrated the tooth structure, depending on the tooth size. For deep cavities, the drilling stopped when the color of the remaining dentin looked reddish gray. The smear layer was removed with a gentle application of 17% EDTA. After sufficient irrigation, surgical sites were dried with a cotton pellet. For CPNE7 function analysis, the cavities were either untreated or treated with a topical application of rCPNE7 (recombinant CPNE7) protein (1 µg total rCPNE7 per tooth in a buffer containing 25 mM Tris-HCl, 100 mM glycine, and 10% glycerol). After a brief incubation for diffusion, the cavities were then filled with either glass ionomer (GI) cement (GC; Fuji II LC; GC America Inc., Alsip, IL, USA), composite resin (Filtek Supreme Ultra Flowable Restorative; 3 M, MN, USA) or intermediate restorative material (IRM; Dentsply Sirona, New York, PA, USA). For peptide function analysis, an HIV-1 Tat-derived cell-penetrating peptide was used as control. In addition to the abovementioned shallow and deep cavity models, complete pulp exposure was performed for peptide analysis. For complete pulp exposure, the drilling stopped when a pin-point exposure of the pulp was generated and bleeding was evident. Cotton pellets soaked in saline were used for bleeding control. Cavities with exposed pulps were divided into two groups for the experiment. Group 1 received only GI cement filling, group 2 received GI cement filling after MTA (ProRoot MTA; Dentsply Sirona, New York, PA, USA) sealing, and group 3 received GI cement filling after MTA mixed with CPNE7-derived peptide (Cpne7-DP) sealing. […]

[2] = tested on: dental pulp cells under deep cavities; assay: TUNEL assay of dental pulp at deep cavity preparation areas; format: in vivo, beagle dog; details: 3 weeks, versus GI cement only control
Method: Apoptotic cells were detected using the TUNEL kit (Roche Biochemicals, Basel, Switzerland), according to the manufacturer’s instructions. Endogenous peroxidase activity within the tissue sections were blocked in 3% H2O2 prior to enzymatic labeling. To yield a colored reaction product, enzymatically labeled cells were then incubated with 3,3-diaminobenzidine tetrahydrochloride. Visualization was achieved by incubating the sections with diaminobenzidine tetrahydrochloride (DAB), and subsequent counter-staining with hematoxylin. Positive TUNEL signals were converted to red color using IHC Profiler of Image J software (National Institute of Health, Gaithersburg, MD, USA).

[3] = tested on: deep cavities in beagle dog premolars; assay: Deep cavity tooth defect model in beagle dog premolars; format: in vivo
Description: (§1) For in vivo canine studies, a total of 10 beagle dogs (2 y) were operated on, with all of them reaching end points. For each animal, 4 to 6 maxillary premolars and 6 mandibular premolars were used, depending on their periodontal conditions. Control and experimental groups were allocated to each and every animal so that possible biases resulting from individual nutritional, behavioral, and pulpal conditions could be eliminated. Compared to small animal studies, the sample size was necessarily limited for feasibility and ethical reasons. While the exact numbers for each experiment are included in the figure legends, at least 6 premolars and up to 12 premolars were assigned to every control and experimental group. Investigators performing beagle operation and sampling were not blinded, while investigators involved in histological analysis were blinded. All experiments using animals followed protocols approved by the Institutional Animal Care and Use Committee of Seoul National University (SNU-180416-2-1 and SNU-171020-5-2).
(§2) Beagle dogs of 1–2 years of age were used for three independent experiments. After disinfecting the cervical regions of the maxillary and mandibular premolars with 0.5% chlorhexidine, dish-shaped class V cavities were prepared using a #4 high-speed round bur (head diameter, 1.4 mm). […]

[4] = tested on: shallow cavities in beagle dog premolars; assay: Shallow cavity tooth defect model in beagle dog premolars; format: in vivo
Description: as §1, §2

[5] = beagle dog premolars, topical application, then cavity filling, H&E histology after 3 weeks
[6] = six weeks instead of three, H&E, n = 6

B1: rCPNE7: recombinant CPNE7 protein, a dental epithelium-derived calcium-dependent phospholipid-binding protein (Origene) (protein, UniProt Q9UBL6 1-633, looked up)
Copine-7: MSAGSERGAAATPGGLPAPCASKVELRLSCRHLLDRDPLTKSDPSVALLQQAQGQWVQVGRTEVVRSSLHPVFSKVFTVDYYFEEVQRLRFEVYDTHGPSGFSCQEDDFLGGMECTLGQPAQKWLLQVVMRVSVDVLGPAGHCAKHFLCCTESSHLARTGPSFLLRYDDLCLPWATAGAVRWWTCRGGHTQGWQIVAQKKVTRPLLLKFGRNAGKSTITVIAEDISGNNGYVELSFRARKLDDKDLFSKSDPFLELYRVNDDQGLQLVYRTEVVKNNLNPVWEAFKVSLSSLCSCEETRPLKCLVWDYDSRGKHDFIGEFSTTFEEMQKAFEEGQAQWDCVNPKYKQKRRSYKNSGVVVLADLKFHRVYSFLDYIMGGCQIHFTVAIDFTASNGDPRNSCSLHYINPYQPNEYLKALVSVGEICQDYDSDKRFSALGFGARIPPKYEVSHDFAINFNPEDDECEGIQGVVEAYQNCLPRVQLYGPTNVAPIISKVARVAAAEESTGKASQYYILLILTDGVVTDMADTREAIVRASRLPMSIIIVGVGNADFTDMQVLDGDDGVLRSPRGEPALRDIVQFVPFRELKNASPAALAKCVLAEVPKQVVEYYSHRGLPPRSLGVPAGEASPGCTP
Collagen content of newly generated dentin area ([1]; Masson's trichrome staining): higher collagen content | Hard tissue formation with alternative cavity filling material ([1]; composite resin or zinc oxide-eugenol (ZOE) filling, H&E after six weeks, n = 6): formation of tubular dentin | Presence of dentinal tubules in the newly mineralized area ([1]; scanning electron microscopy, along the entire length of predentin): clear tubule structure | Cell death under the newly generated dentin (TUNEL) [2]: significantly reduced cell death | New hard tissue formation beneath deep cavity [3, 5]: newly generated tertiary dentin was present beneath the remaining dentin | Thickness of newly formed tubular dentin, deep cavity [3, 6]: increased significantly | New hard tissue formation beneath shallow cavity [4, 5]: newly generated tertiary dentin retaining the physiologic tubule structure | Thickness of newly formed tubular dentin, shallow cavity [4, 6]: increased significantly
